The results in this text go back to patent US20240139351A1, “TARGETING SYSTEM WITH IMPROVED UPTAKE” (CORETAG IP B.V., priority 2021, published 2024).

In data set [1] the test system is intracellular proteins, including tubulin and actin. As to the kind of experiment: Affinity of cyanines towards intracellular proteins. It counts as binding. An excerpt: (§1) The present targeting molecule is very selective and very specific in binding to necrotic cells. […] For the present invention three specific cyanines are selected, namely 800CW, 800RS, and ZW-800. These molecules are found to have a high affinity towards the intracellular proteins, including tubulin and actin. […] As a result, very low concentrations c.q. amounts of the present system may be used to provide advantageous effects thereof. It is noted that apoptosis specific probes, in contrast to necrosis specific probes will also target healthy tissue as apoptosis is involved in normal tissue turnover. The present cyanine is attached to a second entity, namely a linker, wherein the linker may even be a relatively small molecule, the linker being attached to the present drug uptake improving molecule, wherein the drug uptake improving molecule is selected from aromatic compounds comprising a residue or group selected from amino acid residues, which latter molecule is attached to the chelator, wherein the chelator is typically selected from DOTA and NOTA comprising compounds (DOTA: 1,4,7,10-Tetraazacy-clododecane-1,4,7,10-tetraacetic acid and NOTA: 1,4,7-triazacyclononane-N,N′,N″-tri-acetic acid). Attached to the chelator a further entity may be attached, such as a radionuclide. […]

Data set [2] in a line: Clearance of cyanines in the human body. Conditions: in vivo.
Text: as §1

The next data set relates to NCI-H69 tumor. As to the kind of experiment: Biodistribution of 111In-radiolabeled compounds in mice bearing NCI-H69 tumors. The text has this:
CORETAG has evaluated the radiolabeling, in vitro binding, pharmacology in tumor animal model, and PET or SPECT imaging with an overall expertise in targeted radiotherapy and companion imaging diagnostic. The aim of this part is to evaluate the biodistribution of the 4 compounds below and compare it to the biodistribution of DOT-AGA-PEG4-CW800 (prior art).
The injected activity was about 9.0 MBq.
The NCI-H69 cell line used is a human small cell lung cancer carcinoma that was
Tumor cells were grown at 37° C. in a humidified atmosphere (5% CO2, 95% air). The culture medium will be RPMI1640 medium containing 10% fetal calf serum. NCI-H69 tumor cells are growing as a cell suspension. For experimental use, tumor cells were harvested by centrifugation. Cells were counted and viability assessed using a 0.25% try-pan blue exclusion assay.
Thirty-one (31) healthy female SWISS Nude (Crl:NU(Ico)-Foxn1nu) mice, 6-8 weeks old at reception, were obtained from Charles River. The injection volume was 100 μl.
Tumors were induced by subcutaneous injection of 2×10^7 NCI-H69 cells in 200 μL of RPMI 1640 into the right flank of 31 female animals in the axis of the heart. NCI-H69 tumor cell implantation was performed 24 to 72 hours after a whole-body irradiation with a gamma-source (2 Gy, 60 Co, BioMep, France). The day of tumor induction is considered as D0.
All imaging experiments were performed on a 4.7T horizontal magnet (PharmaS-can, Bruker Biospin GmbH, Germany) equipped with an actively shielded gradient system. All the MR images were acquired under ParaVision (PV5.1, Bruker Biospin).

Data set [3] can be described thus: Aqueous solution concentration. It counts as physicochemical.

Consider `CC1(C)C(/C=C/C2=C(Oc3ccc(S(=O)(=O)O)cc3)C(=C/C=C3/N(CCCCS(=O)(=O)O)c4ccc(S(=O)(=O)[O-])cc4C3(C)C)/CCC2)=[N+](CCCCCC(=O)O)c2ccc(S(=O)(=O)O)cc21` [800CW], for which the “affinity towards the intracellular proteins” value in data set [1] is given as “high affinity”. Besides, in data set [2], the “clearance in the human body” value was “cleared in the human body specifically well”.

For `CC1(C)C(=CC=C2CCCC(C=CC3=[N+](CCC[N+](C)(C)C)c4ccc(S(=O)(=O)O)cc4C3(C)C)=C2Oc2ccc(CCC(=O)O)cc2)N(CCC[N+](C)(C)C)c2ccc(S(=O)(=O)O)cc21` [ZW-800], the “affinity towards the intracellular proteins” value in data set [1] is on record as “high affinity”. The “clearance in the human body” value in data set [2] was “cleared in the human body specifically well”.

For DOTAGA-LYS-(PEG4-CW800)2 [component 5], the “Uptake in all organs” value with NCI-H69 tumor (all organs) was “increased”. Also, the “concentration present (assessment)” value in the data set with NCI-H69 tumor (mouse, in vivo) is given as “too high concentration”. In the data set with NCI-H69 tumor (tumor), the uptake in tumor result was “higher uptake”.

IR800CW-PEG4-NaI-DOTA-GA [component 6]: in the data set with NCI-H69 tumor (mouse, in vivo), the “Radioactivity in blood (comparison between components)” value was “higher”, the “dosage to all organs tested compared to components 1-4” value is “about twice as high”, the “dosage to the tumor compared to components 1-4” value is “about twice as high” and the uptake in tumor entry is “higher uptake”. The “Remaining radioactivity in whole body after 3 h” value with NCI-H69 tumor (mouse, in vivo, 3 h) was “higher”. Moreover, the “forms an aqueous solution” value in data set [3] is reported as more than 1 mM.
